# Assay results: IntAct's records for PubMed 18067539
# B1: DNA-binding transcriptional repressor Mlc (Escherichia coli (strain K12)), P50456 (parent)
# chain: MVAENQPGHIDQIKQTNAGAVYRLIDQLGPVSRIDLSRLAQLAPASITKIVREMLEAHLVQELEIKEAGNRGRPAVGLVVETEAWHYLSLRISRGEIFLALRDLSSKLVVEESQELALKDDLPLLDRIISHIDQFFIRHQKKLERLTSIAITLPGIIDTENGIVHRMPFYEDVKEMPLGEALEQHTGVPVYIQHDISAWTMAEALFGASRGARDVIQVVIDHNVGAGVITDGHLLHAGSSSLVEIGHTQVDPYGKRCYCGNHGCLETIASVDSILELAQLRLNQSMSSMLHGQPLTVDSLCQAALRGDLLAKDIITGVGAHVGRILAIMVNLFNPQKILIGSPLSKAADILFPVISDSIRQQALPAYSQHISVESTQFSNQGTMAGAALVKDAMYNGSLLIRLLQG
# partner: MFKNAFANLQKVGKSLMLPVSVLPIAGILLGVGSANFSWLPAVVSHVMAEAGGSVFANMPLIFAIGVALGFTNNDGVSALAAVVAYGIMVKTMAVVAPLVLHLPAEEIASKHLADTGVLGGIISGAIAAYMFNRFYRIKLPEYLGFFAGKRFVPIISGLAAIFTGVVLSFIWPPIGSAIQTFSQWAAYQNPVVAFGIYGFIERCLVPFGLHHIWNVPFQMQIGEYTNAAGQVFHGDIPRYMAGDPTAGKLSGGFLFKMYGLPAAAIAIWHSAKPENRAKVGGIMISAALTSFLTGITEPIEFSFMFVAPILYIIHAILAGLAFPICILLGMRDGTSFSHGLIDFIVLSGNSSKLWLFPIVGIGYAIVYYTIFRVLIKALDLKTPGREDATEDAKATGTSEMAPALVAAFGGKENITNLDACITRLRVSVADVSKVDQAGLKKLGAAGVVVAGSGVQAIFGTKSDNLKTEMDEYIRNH
# Variants of: B1
# Conditions: with ptgcb_ecoli ptsG
row,effect of a mutation on the interaction,Variant
1,decreasing interaction strength,G406A
